The target of assay [1] is T1, amyloid-β 1-42 fibers (fAβ42) (human, UniProt P05067 672-713).
T1 construct: domain: amyloid-β 1-42; also called Aβ fibrils; Aβ fibers
The experiment in a line: competition with M13-Alexa488 for fAβ, fiber sedimentation assay.

The target in assay [2] is T1, amyloid-β 1-42 fibers (fAβ42). The experiment in a line: competition with labeled M13 for binding to Aβ, 45 minutes at 37 °C; phage with or without pre-activation at 50 °C for 1.5 hours.
For assay [3] the target is unchanged. The experiment in a line: SPR, calculated from the data of FIG. 3A.
Assay [4] has the same target.
The target is the same in assay [5]. Put plainly: SPR on Aβ fibrils.
Assay [6] has the same target. The experiment in a line: SPR, 10^14 phage/mL over immobilized fAβ. A general note: In SPR one partner is held on a chip, and binding of the other changes the refractive index at the surface.
For assay [7] the target is unchanged. The experiment in a line: SPR on Aβ fibrils, 25° C.
In assay [8] the target is tau fibers (ftau). Put plainly: SPR, Construct 4 on ftau.
Assay [9] concerns the target T1, amyloid-β 1-42 fibers (fAβ42). The experiment in a line: cell-based or functional assay.
Assay [10] shares this target. Put plainly: SPR, 4 µM rs-g3p(N1N2) on Aβ fibrils.
Assay [11] has the same target. The experiment in a line: SPR on Aβ fibrils, analyte preheated at 37° C.
Assay [12] has the same target. Put plainly: SPR, Aβ42 fibers immobilized on a CM3 surface, about 2 µM analyte at 5 µl/min.

Positions count from the first letter of the chain named. Like-named read-outs stand apart in the source and are kept apart here.

T1 sequence (P05067 672-713 limits assumed): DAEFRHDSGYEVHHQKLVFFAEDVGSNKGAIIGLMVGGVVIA

B1: If1N1N2 g3p (without Fc domain) (other)
chain: ATTDAECLSKPAFDGTLSNVWKEGDSRYANFENCIYELSGIGIGYDNDTSWNGHWTPVRAADGSGNGGDDNSSGGGSNGDSGNNSTPDTVTPGQTVNLPSDLSTLSIPANVVKSDSIGSQFSLYTNASCTMCSGYYLSNNADSIAIANITETVKADYNQPDMWFEQTDSDGNHVKILQNSYKAVSYNVESKQSDVNNPTYINYSYSVNVKQVSYDTSNVCIMNWETFQNKCDASRAVLITDTVTPSYSRNITIQSNINYQGSNGSGGSGGSGGSG
Regarding B1, the “fold better binding than M13 N1N2 g3p” value in [1] is approximately 4 fold.

B2: phage fd (wild type) (other)
chain: AETVESCLAKPHTENSFTNVWKDDKTLDRYANYEGCLWNATGVVVCTGDETQCYGTWVPIGLAIPENEGGGSEGGGSEGGGSEGGGTKPPEYGDTPIPGYTYINPLDGTYPPGTEQNPANPNPSLEESQPLNTFMFQNNRFRNRQGALTVYTGTVTQGTDPVKTYYQYTPVSSKAMYDAYWNGKFRDCAFHSGFNEDPFVCEYQGQSSDLPQPPVNAGGGSGGGSGGGSEGGGSEGGGSEGGGSEGGGSGGGSGSGDFDYEKMANANKGAMTENADENALQSDAKGKLDSVATDYGAAIDGFIGDVSGLANGNGATGDFAGSNSQMAQVGDGDNSPLMNNFRQYLPSLPQSVECRPYVFGAGKPYEFSIDCDKINLFRGVFAFLLYVATFMYVFSTFANILRNKES
As for B2, the binding result in assay [2] is “binds”.

B3: M13 phage (construct not stated) (other)
chain: B2 chain with Y357F, G360S
notes: also called wild type M13; labeled M13
As usually defined, the Kd is a measure of binding affinity in units of concentration. For B3, the Kd in assay [3] was 3.59 nM.

B4: M13 phage (Construct 1) (other)
chain: B2 chain with Y357F
The term koff denotes the rate constant with which the complex falls apart. Lower therefore signals slow dissociation. One may read the kon as the second-order rate constant of association. As for B4, the Kd was approximately 7 nM in assay [4], 3.59 nM in assay [5] and approximately 4 nM in assay [6]. For the same molecule, in assay [5], the koff is 9.2e-06 s⁻¹. Also, the kon in assay [5] was 2600 M⁻¹ s⁻¹.

B5: rs-g3p(N1N2)-hIgG4-Fc fusion protein (Construct 4) (Fc fusion)
chain: MAETVESCLAKPHTENSFTNVWKDDKTLDRYANYEGCLWNATGVVVCTGDETQCYGTWVPIGLAIPENEGGGSEGGGSEGGGSEGGGTKPPEYGDTPIPGYTYINPLDGTYPPGTEQNPANPNPSLEESQPLNTFMFQNNRFRNRQGALTVYTGTVTQGTDPVKTYYQYTPVSSKAMYDAYWNGKFRDCAFHSGFNEDPFVCEYQGQSSDLPQPPVNAGGGSGGGSGGGSEGGGSEGGGSEGGGSEGGGSGGGSGSGAMVRSPPCPSCPAPEFLGGPSVFLFPPKPKDTLMISRTPEVTCVVVDVSQEDPEVQFNWYVDGVEVHNAKTKPREEQFNSTYRVVSVLTVLHQDWLNGKEYKCKVSNKGLPSSIEKTISKAKGQPREPQVYTLPPSQEEMTKNQVSLTCLVKGFYPSDIAVEWESNGQPENNYKTTPPVLDSDGSFFLYSRLTVDKSRWQEGNVFSCSVMHEALHNHYTQKSLSLSPGK
notes: also called rs-g3p(N1N2)-Ig fusion; bivalent rs-g3p(N1N2)-Ig fusion
As to B5, in [7], the Kd came to 7.32 nM, the koff came out at 0.000128 s⁻¹ and the kon was 17500 M⁻¹ s⁻¹. In addition, the Kd in assay [8] was determined as 62.9 nM.

B6: rs-g3p(N1N2)-hIgG4-Fc fusion protein (Construct 5) (Fc fusion)
chain: B5 chain with V156F
In [7], B6 showed a Kd of 10.9 nM, a koff of 0.000166 s⁻¹ and a kon of 15200 M⁻¹ s⁻¹.

B7: recombinant soluble N1N2 fragment of g3p, rs-g3p(N1N2) (Construct 3) (other)
chain: MAETVESCLAKSHTENSFTNVWKDDKTLDRYANYEGCLWNATGVVVCTGDETQCYGTWVPIGLAIPENEGGGSEGGGSEGGGSEGGGTKPPEYGDTPIPGYTYINPLDGTYPPGTEQNPANPNPSLEESQPLNTFMFQNNRFRNRQGALTVYTGTVTQGTDPVKTYYQYTPVSSKAMYDAYWNGKFRDCAFHSGFNEDLFVCEYQGQSSDLPQPPVNAPSGHHHHHH
notes: also called monomer; monomeric g3p
With B7, the “IC50 of inhibition of Aβ42 fiber formation, ThT fluorescence (10 µM Aβ42 monomers, 37° C., 3 days)” value in assay [9] is approximately 20 nM. The dissociation constant (Kd) in [7] is 150 nM; in assay [10], approximately 160 nM; in [11], 50 nM; in assay [12], approximately 150 nM. The koff in [7] worked out at 0.00024 s⁻¹; in assay [11], 0.0002 s⁻¹. Further, the kon in assay [7] was 1500 M⁻¹ s⁻¹; in [11] it was 4100 M⁻¹ s⁻¹.

(Values after US20170305975A1 (PROCLARA BIOSCIENCES, published 2017).)
